Substrate in this series: C[S+](CC[C@H](N)C(=O)[O-])C[C@H]1O[C@@H](n2cnc3c(N)ncnc32)[C@H](O)[C@@H]1O
The series is described as follows: purified protein. To be noted: pyruvoyl group (converted Ser68).

B1: human S-adenosylmethionine decarboxylase (hAdoMetDC) (Homo sapiens) (protein)
chain 1: MEAAHFFEGTEKLLEVWFSRQQPDANQGSGDLRTIPRSEWDILLKDVQCSIISVTKTDKQEAYVLSE
chain 2: SSMFVSKRRFILKTCGTTLLLKALVPLLKLARDYSGFDSIQSFFYSRKNFMKPSHQGYPHRNFQEEIEFLNAIFPNGAAYCMGRMNSDCWYLYTLDFPESRVISQPDQTLEILMSELDPAVMDQFYMKDGVTAKDVTRESGIRDLIPGSVIDATMFNPCGYSMNGMKSDGTYWTIHITPEPEFSYVSFETNLSQTSYDDLIRKVVEVFKPGKFVTTLFVNQSSKCRTVLASPQKIEGFKRLDCQSAMFNDYNFVFTSFAKKQQQQQS
For the protein B1, the Km amounted to 3.1 ± 1.8 µM.

The record behind these values is publication PMC5377238.
